Test results taken from the nanobody polyreactivity screen of Harvey et al. (2022).

Test: yeast display, Sf9 membrane polyspecificity reagent, FACS + sequencing; frameworks hold sequencing errors
Procedure, shortened: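 In a synthetic yeast display library (Saccharomyces cerevisiae BJ5465), nanobody expression was induced with galactose for 36–48 hours. FACS gates were set low and high (top ~1%) using anti-HA fluorescence for expression and streptavidin fluorescence for binding of the Sf9 membrane reagent. Each polyreactivity label is drawn from the gate of origin.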

Sequence: QVQLVESGGGLVQAGGSLRLSCAASGSIFNYNMGWYRQAPGKERELVAAVSTNYADSVKGRFTISRDNAKNTVYLQMNSLKPEDPAGYYCGVTPEKSGDQYDYWGPGTQVTVSS
- polyreactivity (PSR sort gate): low polyreactivity

Sequence: QVQLVESGGGLVQAGGSLRLSCAASGSIFNYYAMGRYRQAPGKERELVAAIETTGGSTYYADSVKGRFTISRDNAKNTVYLQMNSLKPEDTAVYYCAATWAKPWYYEYDYWGQGTQVTVSS
- polyreactivity (PSR sort gate): low polyreactivity

Sequence: QVQLVESGGGLVQAGGSLRLSCAASGSIFNYYAMGWYRQAPGKEREFVAGITTSGGSTYYADSVKGRFTISRDNAKNTVCLQMNSLKPEDTAVYYCAAYDYISSTYFLDDYWGQGTQVTVSS
- polyreactivity (PSR sort gate): low polyreactivity

Sequence: QVQLVESGGGLVQAGGSLRLSCAASGSIFNYYAMGWYRQAPGKERELVAAIRSTGSTNYADSVKGRFTISRDNAKNTVYLQMNSLKPEDTAVYYCATDVSDWLYFAEHYYWGQGTQVTVSS
- polyreactivity (PSR sort gate): low polyreactivity

Sequence: QVQLVESGGGLVQAGGSLRLSCAASGSIFNYYAMGWYRQAPGKERELVAGITTSGGSTYYADSVKGRFTISRDNAKNTVYFQMHSLKPEDTAVYYGAAYDYISSTYFLDDYWGQGTQVTVSS
- polyreactivity (PSR sort gate): low polyreactivity

Sequence: QVQLVESGGGLVQAGGSLRLSCAASGSIFNYYAMGWYRQAPGKERELVATISSGGNTKYADSVKGRFTISRDNAKNTVYLQMNSLKPEDTAVYYCAARWQHSGYRDRYWYDYWGQGTQVTVSS
- polyreactivity (PSR sort gate): low polyreactivity

Sequence: QVQLVESGGGLVQAGGSLRLSCAASGSIFNYYAMGWYRQAPGKERELVATITRGGSTYYADSVKGRFTISRDNAKNTVYLQMNRLKPEDTAVYYCAKVGRSTAYQNGYDYWGQGTQVTVSS
- polyreactivity (PSR sort gate): low polyreactivity

Sequence: QVQLVESGGGLVQAGGSLRLSCAASGSIFNYYAMGWYRQAPGKVRELVATISSGGNTKFADSVKGRFTISRDNAKNTVYLQMKSLKPEDTAVYFCGARWQHSGYRDRYCYDYWGQGTQVTVSS
- polyreactivity (PSR sort gate): low polyreactivity

Sequence: QVQLVESGGGLVQAGGSLRLSCAASGSIFNYYAMGWYRQEPGKERELVAAISSGGSTYYADSVKGRFTISRDNAKNTVYLQMNSLKPEDTAVYYCAVDSPYLDEYDYWGQGTQVTVSS
- polyreactivity (PSR sort gate): high polyreactivity

Sequence: QVQLVESGGGLVQAGGSLRLSCAASGSIFNYYTMGWYRQAPGKERELVAAISWSGGSTYYADSVKGRFTISRDNAKNTVYLQMNSLKPEDTAVYYCAAVVRYSQAGYYYWGQGTQVTVSS
- polyreactivity (PSR sort gate): high polyreactivity

Sequence: QVQLVESGGGLVQAGGSLRLSCAASGSIFPFYAMGWYRQAPGKERELVAAISWSVGNTYYADSVKGRFTISRDNAKNTVYLQMNRLKPEDTAVYYCAARQDPPLGYDYWGQGTQVTVSS
- polyreactivity (PSR sort gate): low polyreactivity

Sequence: QVQLVESGGGLVQAGGSLRLSCAASGSIFPGNTMGWYRQAPGKERELVAVITKRGGRTYYADSVKGRFTISRDNAKNTVYLQMNSLKPEDTAVYYCARAPSYSTGVSIRDYWGQGTQVTVSS
- polyreactivity (PSR sort gate): high polyreactivity

Sequence: QVQLVESGGGLVQAGGSLRLSCAASGSIFPGYAMGWYRQAPGKERELVADITSGDTTKYADSVKGRFTISRDNAKNNVYLQMNSLKPEDTAVYYCAADDYLTDFDYWGQGTQVTVSS
- polyreactivity (PSR sort gate): low polyreactivity

Sequence: QVQLVESGGGLVQAGGSLRLSCAASGSIFPGYTMGWYRQAPGKESELVAAITSSGGSTYYADSVKGRITISRDNAKNTVYLQMNSLKPEDTSVYYCAADTTNYFVPFDYWGLGTQVTVSS
- polyreactivity (PSR sort gate): low polyreactivity

Sequence: QVQLVESGGGLVQAGGSLRLSCAASGSIFPHYAMGWSRQAPGKEREFVATISGSTGRTYYADSVKGRFTISRDNAKNTVYLQMNSLKPEDTAVYYCATSVGYYLPPIKYDYWGQGTQVTVSS
- polyreactivity (PSR sort gate): low polyreactivity

Sequence: QVQLVESGGGLVQAGGSLRLSCAASGSIFPINAMGWSRQAPGKERELVAAITVSDGRTYYADSVKGRFTISRDNAKNTVYLQMNSLKPEDTAVYYCAAVTPFRVLYDYWGQGTQVTVSS
- polyreactivity (PSR sort gate): low polyreactivity

Sequence: QVQLVESGGGLVQAGGSLRLSCAASGSIFPIYAMGRYRQAPGKEMELVAAINRSGGSTYYADSVKGRFTISRDNAKNSVYLQMNSLIPEDTAVYYCNADYGYHNQLFWGYYGWSSDHWGQGTQVTVSS
- polyreactivity (PSR sort gate): low polyreactivity

Sequence: QVQLVESGGGLVQAGGSLRLSCAASGSIFPKYAMGWYRQAPGKERELVAAITSSGGRTYYADSVKGRFTISRDNAKNTVYLQMNSLKPEDTAVYYCAARSPRASGNSDYWGQGTQVTVSS
- polyreactivity (PSR sort gate): high polyreactivity

Sequence: QVQLVESGGGLVQAGGSLRLSCAASGSIFPLYDMGWYRLAPGKERELVAGITGSGGSTYYADSVKGRFTISRDNAKNTVYLQMNSLKPEDTAVYYCAADYSLYGWWFRNDYWGQGTQVTVSS
- polyreactivity (PSR sort gate): low polyreactivity

Sequence: QVQLVESGGGLVQAGGSLRLSCAASGSIFPPYTMGWYRQAPGKERELVAAISWGGGSTYYADSVKGRFTISRDNAKNTVYLQMNSLKPEDTAVYYCAAGRYYRGYYWGQGTQVTVSS
- polyreactivity (PSR sort gate): high polyreactivity

Sequence: QVQLVESGGGLVQAGGSLRLSCAASGSIFPPYVMGWYRQAPGKERELVASITTSGGSTYYADSVKGRFTISRDNAKNTVYLQIKSLKPEDTAVYYCAARWYYGGKSAGPGGGYWGQGTQVTVSA
- polyreactivity (PSR sort gate): low polyreactivity

Sequence: QVQLVESGGGLVQAGGSLRLSCAASGSIFPRNAMGWYRQAPGKERELVARINSGGTTKYADSVKGRFTISRDNAKYTVFLQMNSLKPEDTAGYYCNADTYILDPLRKSYGYDYWGQGTQVTVSS
- polyreactivity (PSR sort gate): low polyreactivity

Sequence: QVQLVESGGGLVQAGGSLRLSCAASGSIFPRYAMGWYSQAPGKERELVATISYRGGTTYYADSVKGRFTISRDNEKNTVYLQMNSLKPEDSAVYYCNTLYYRGIYDPWGQGTQVTVSS
- polyreactivity (PSR sort gate): high polyreactivity

Sequence: QVQLVESGGGLVQAGGSLRLSCAASGSIFPRYGMGLYRQAPGKERELVAAITTGGNTYYADSVKGRFTISRDNAKNTVYLQMNSLKPEDTAVYYCNARAVTPWFGFYYWGQGTQVTVSS
- polyreactivity (PSR sort gate): low polyreactivity

Sequence: QVQLVESGGGLVQAGGSLRLSCAASGSIFPSYAMGWYRQAPGKERELVAAINWDGGSTFYADSVKGRFTISRDNAKNTVYLQMKSLKPEDTAVYYCAAPDNYGGVGGITFWRMDYWGQGTQVTVSS
- polyreactivity (PSR sort gate): low polyreactivity

Sequence: QVQLVESGGGLVQAGGSLRLSCAASGSIFPSYAMGWYRQAPGKERELVATIGRGGTTNYADSVKGRFTISRDNAKNTVYLQMNSLKPEDTEVYYCNAERIWRYKYGYDYWGQGTQVTVSS
- polyreactivity (PSR sort gate): high polyreactivity

Sequence: QVQLVESGGGLVQAGGSLRLSCAASGSIFPSYAMGWYRQAPGKERELVATISGSGTSTYYADSVKGRFTISRDNAKNTVYLQMNSLKPEDTAVYYSAADPWLGTGRYDYWGQGTQVTVSS
- polyreactivity (PSR sort gate): low polyreactivity

Sequence: QVQLVESGGGLVQAGGSLRLSCAASGSIFPTNTMGWYRQAPGKERELVASINSDGSTNYADSVKGSFTISRDNAKNTVYLQMNSLKPEDTAVYYWAADTQGSEYEFWGQGTQVTVSS
- polyreactivity (PSR sort gate): low polyreactivity

Sequence: QVQLVESGGGLVQAGGSLRLSCAASGSIFPTYALGWYRQAPGKERELVAAISSIVGGTYYADSVKGRFTISRDNAKNTVYLQMNSLKPEDTAVYYCNKTKFQGYDYWGQGTQVTVSS
- polyreactivity (PSR sort gate): low polyreactivity

Sequence: QVQLVESGGGLVQAGGSLRLSCAASGSIFPTYVMGWYRQAPGKERELVAAISARGDSTYADSVKGRFTISRDNAKNTVYLQMNSLKPEDTAVYYCAKSAHSDYVYSRLEFGYWGQGTQVTVSS
- polyreactivity (PSR sort gate): low polyreactivity

Sequence: QVQLVESGGGLVQAGGSLRLSCAASGSIFPVNAMGWYRQAPGKERELVAAISSDGTTYYADSVKGRFTISRDNAKNTVYLQMNSLKPEDTAVYYCAKDRRYYKAYDYWGQGTLVTVSS
- polyreactivity (PSR sort gate): low polyreactivity

Sequence: QVQLVESGGGLVQAGGSLRLSCAASGSIFPVYAMGWYRQAPGKERELVASISTGGSTYYADSVKGRFTISRDNAKNTVYLQMNSLKPEDTAVYYCSATGWAYGYGYGYWGQGTQVTVSS
- polyreactivity (PSR sort gate): low polyreactivity

Sequence: QVQLVESGGGLVQAGGSLRLSCAASGSIFPWNAMGWYRKAHGKARELVAVISQNGGRTYYADSVKGSFTISRDKAKNTVYLQMNSLKPEDTAVYYCAARPRLPRQIGGDGHLDDYWGQGTQVTVSS
- polyreactivity (PSR sort gate): high polyreactivity

Sequence: QVQLVESGGGLVQAGGSLRLSCAASGSIFPWNAMGWYRQAPGKERELVAAISYSGTRTYYADSVKGRFTISRDNAKNTVYLQMNSLKPVDTAVYYCNARGYTRSYVKYDYWGQGTQVTVSS
- polyreactivity (PSR sort gate): high polyreactivity

Sequence: QVQLVESGGGLVQAGGSLRLSCAASGSIFPWYAMGWYRQAPWKERELVAGISSGGGTNYADSVKGRFTISRDNAKNTVYLQMNSMKPEDTAVYYCNADYFGGGDYWGQGTQVTVSS
- polyreactivity (PSR sort gate): low polyreactivity

Sequence: QVQLVESGGGLVQAGGSLRLSCAASGSIFPWYVMGWYRQAPRKERELVASITYRGASTYYADSVKGRFTISRDNAKNTVYLQMNSLKPEDTAVYYCADFRSYYSERHDYGYWGQGTQVTVSS
- polyreactivity (PSR sort gate): low polyreactivity

Sequence: QVQLVESGGGLVQAGGSLRLSCAASGSIFPYNAMGWYRQAPGKERELVAAISRSGGSTYYADSVKGRFTISRDNAKNTVYLQMNSLKPEDTAVYYCAAYSLYWRDDYWGQGTQVTVSS
- polyreactivity (PSR sort gate): high polyreactivity

Sequence: QVQLVESGGGLVQAGGSLRLSCAASGSIFPYNAMGWYRQAPGKERELVATISSGGSTNYADSVKGRFTISRDNAKNTVYLQMNSLKPEDTAVYDCAADVIVFYYAPNYWGDIGYGYWGQGTQVTVSS
- polyreactivity (PSR sort gate): low polyreactivity

Sequence: QVQLVESGGGLVQAGGSLRLSCAASGSIFPYNVMGWYRQAPGKERELVAVITGSTGRTYYADSVKGRFTISRDNAKNTVYLQMNSLKPEDTAVYYCAKRRYWAPYDYWGQGTQVTVSS
- polyreactivity (PSR sort gate): high polyreactivity

Sequence: QVQLVESGGGLVQAGGSLRLSCAASGSIFPYYAMGWYRQAPGKEREFVAAITISGGSTYYADSVKGRFTISRDNAKNTVYLQMNSLKPEDTAVYYCNADKGYVYGDTFYQSGGYYSWGQGTQVTVSS
- polyreactivity (PSR sort gate): low polyreactivity

Sequence: QVQLVESGGGLVQAGGSLRLSCAASGSIFPYYAMGWYRQAPGKERELVAAISSGDITDYADSVKGRFTISRDNAKNTVYLQMNSLKPEDTAVYYCAAVYDLGYYGPIWAIVLDDYWGQGTQVTVSS
- polyreactivity (PSR sort gate): low polyreactivity

Sequence: QVQLVESGGGLVQAGGSLRLSCAASGSIFPYYAMGWYRQAPGKERELVAAITLSGGRTYYADSVKGRFTISRDNAKNTVYLQMNSLKPEDTAVYYCNVYRSKKRYGWGEDDYWGQCTQVTVSS
- polyreactivity (PSR sort gate): high polyreactivity

Sequence: QVQLVESGGGLVQAGGSLRLSCAASGSIFPYYAMGWYRQAPGKETELVAVINSGGITNYADSVKGRFTISRDNAKNTVYLQMNSLKPEDTAVYYCAAAASPLTRHLYWGQGTQVTVSS
- polyreactivity (PSR sort gate): low polyreactivity
